Assay results: patent US20080044815A1 (published 2008)

What was measured:
Experiment in all cases: forward yeast two-hybrid, β-galactosidase overlay assay
[1] = target: T1, JNK1 point mutant Tyr-320-His, fused to the B42 activation domain (pJG4-5) (human, UniProt Q91Y86 1-384 (mouse entry))
T1 construct: Full-length JNK1 single point mutant; two-hybrid prey; also called Y320H; Y320→H320

[2] = target: T2, JNK1 point mutant Leu-131-Arg, fused to the B42 activation domain (pJG4-5) (human, UniProt Q91Y86 1-384 (mouse entry))
T2 construct: Full-length JNK1 single point mutant; two-hybrid prey; also called L131R; L131→R131

[3] = target: T3, JNK1 point mutant Arg-309-Trp, fused to the B42 activation domain (pJG4-5) (human, UniProt Q91Y86 1-384 (mouse entry))
T3 construct: Full-length JNK1 single point mutant; two-hybrid prey; also called R309W; R309→W309

Measured: binding result

B1: TI-JIP (Truncated Inhibitor of JNK based on JIP) fused to the LexA DNA-binding domain, from pGILDA-TI-JIP (peptide)
chain: MKALTARQQEVFDLIRDHISQTGMPPTRAEIAQRLGFRSPNAAEEHLKALARKGVIEIVSGASRGIRLLQEEEEGLPLVGRVAAGEPLLAQQHIEGHYQVDPSLFKPNADFLLRVSGMSMKDIGIMDGDLLAVHKTQDVRNGQVVVARIDDEVTVKRLKKQGNKVELLPENSEFKPIVVDLRQQSFTIEGLAVGVIRNGDWLRPKRPTTLNLF
notes: 11-residue peptide expressed in yeast as a C-terminal fusion with LexA (two-hybrid bait); also called bait
no binding: [1] | [2] | [3]
